Test results: patent US20140018297A1 (Novo Nordisk, published 2014)
Values belong to the binder of their own block, whether it stands above or below them.

Assays:
[1] = molecular target: T1, FVIII (N8, turoctocog alfa), B domain truncated FVIII (human, UniProt P00451 20-2351); experiment: Isothermal titration calorimetry at 20 °C, VWF fragment in the syringe titrated into FVIII (turoctocog alfa) in the cell, single-site fit; 50 mM Hepes pH 7.4, 150 mM NaCl, 10 mM CaCl2
T1 construct: also called F8; F8-500
T1 sequence: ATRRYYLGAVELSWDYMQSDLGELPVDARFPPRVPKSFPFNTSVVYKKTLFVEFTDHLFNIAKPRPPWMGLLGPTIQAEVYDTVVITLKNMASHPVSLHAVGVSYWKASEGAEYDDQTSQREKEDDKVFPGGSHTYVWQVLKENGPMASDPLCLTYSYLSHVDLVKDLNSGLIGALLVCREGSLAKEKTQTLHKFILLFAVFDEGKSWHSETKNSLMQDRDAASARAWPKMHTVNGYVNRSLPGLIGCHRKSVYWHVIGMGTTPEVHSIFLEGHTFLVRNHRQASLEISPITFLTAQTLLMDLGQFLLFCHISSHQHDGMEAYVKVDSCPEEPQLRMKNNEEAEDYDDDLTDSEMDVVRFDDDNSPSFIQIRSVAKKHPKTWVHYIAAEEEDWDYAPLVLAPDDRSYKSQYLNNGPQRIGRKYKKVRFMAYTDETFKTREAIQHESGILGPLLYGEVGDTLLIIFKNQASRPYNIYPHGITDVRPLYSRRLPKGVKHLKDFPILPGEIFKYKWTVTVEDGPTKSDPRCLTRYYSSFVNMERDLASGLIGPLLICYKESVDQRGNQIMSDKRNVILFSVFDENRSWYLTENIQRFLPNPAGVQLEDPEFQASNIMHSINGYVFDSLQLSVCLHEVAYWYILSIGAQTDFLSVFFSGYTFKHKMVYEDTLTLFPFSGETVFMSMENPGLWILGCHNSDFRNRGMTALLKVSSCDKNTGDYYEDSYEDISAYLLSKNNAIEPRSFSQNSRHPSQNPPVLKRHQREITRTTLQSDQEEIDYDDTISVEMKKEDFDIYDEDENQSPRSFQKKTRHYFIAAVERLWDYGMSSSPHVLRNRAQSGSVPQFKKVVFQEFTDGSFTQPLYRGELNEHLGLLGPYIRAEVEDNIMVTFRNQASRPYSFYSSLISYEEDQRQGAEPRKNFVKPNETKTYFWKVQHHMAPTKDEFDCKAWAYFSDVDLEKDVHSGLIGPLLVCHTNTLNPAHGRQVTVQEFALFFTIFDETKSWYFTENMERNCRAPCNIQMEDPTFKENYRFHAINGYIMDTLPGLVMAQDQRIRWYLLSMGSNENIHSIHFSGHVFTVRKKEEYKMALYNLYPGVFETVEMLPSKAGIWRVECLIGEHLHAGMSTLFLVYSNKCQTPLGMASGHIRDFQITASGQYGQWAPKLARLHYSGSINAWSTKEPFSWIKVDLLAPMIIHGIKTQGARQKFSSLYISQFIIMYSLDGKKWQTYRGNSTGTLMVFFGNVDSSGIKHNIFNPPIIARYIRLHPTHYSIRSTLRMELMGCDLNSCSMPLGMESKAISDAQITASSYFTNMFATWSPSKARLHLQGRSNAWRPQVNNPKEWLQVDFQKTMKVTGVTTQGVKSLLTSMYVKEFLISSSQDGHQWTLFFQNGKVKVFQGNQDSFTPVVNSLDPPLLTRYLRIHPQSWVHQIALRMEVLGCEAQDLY
Protocol: (§1) All protein samples are dialyzed in 50 mM Hepes pH 7.4, 150 mM NaCl, 10 mM CaCl₂ buffer. Each iTC experiment involves filling the iTC cell with FVIII (approximately 250 μL) and the syringe with VWF variants (approximately 40 μL). Temperature is set as required and the protein sample is allowed to equilibrate under given experimental conditions (approximately 10 minutes). Typically 17-20 injections (of 2-2.5 μL) of VWF variants into cell, containing FVIII, are performed. The first injection is always of 0.2 μL and is discarded from the final data analysis in order to account for diffusion during equilibration step. Stirring speed is set between 700-1000 rpm. Filter period for data collection is 5 sec with a high feedback mode setting. Each titration is spaced by 120 sec. Appropriate control experiments are performed. Raw data is processed to set baseline and integrated to obtain a final isotherm. This binding isotherm is fit to a single-site model to yield Kd, stoichiometry (n), ΔH, and ΔS values to complete characterization of VWF variant binding to FVIII.

[2] = molecular target: T1, FVIII (N8, turoctocog alfa), B domain …; experiment: isothermal titration calorimetry at 20° C., VWF variant injected into FVIII; ITC at 20° C.
Protocol: as §1

[3] = molecular target: T2, FVIII (as used in the competition ELISA of Example 21; form not stated) (UniProt P00451 20-2351, limits assumed); experiment: competition ELISA; competitor coated human VWF; FVIII 1 nM pre-incubated with the fragment
T2 sequence (looked up): T1 sequence
Protocol: In order to investigate the binding of the different VWF fragments to FVIII the following method is used. Briefly, human VWF is coated in a microtiterplate and incubated overnight at 4° C. After blocking, a solution with pre-incubated FVIII (1 nM) and VWF/VWF-fragment is added to the plate, followed by detection with biotinylated anti FVIII antibody and streptavidin-peroxidase S-POD (1:20000). The absorbance is measured at 450/620 nm.

[4] = molecular target: T1, FVIII (N8, turoctocog alfa), B domain …; experiment: isothermal titration calorimetry at 20° C., VWF variant injected into FVIII
Protocol: as §1

[5] = molecular target: T3, Fluorescent labelled FVIII (Oregon green-FVIII) (UniProt P00451 20-2351, limits assumed, Oregon green label); experiment: cell-based or functional assay
T3 sequence (looked up): T1 sequence

[6] = molecular target: T1, FVIII (N8, turoctocog alfa), B domain …; experiment: SEC-UV (280 nm), Waters Biosuite 4.6x300 mm, 0.3 ml/min, 155 mM NaCl, 10 mM calcium acetate, 10% isopropanol, 25 °C; FVIII 10 µM, fragment 20 µM, 1:2 mixture
Protocol: Size-exclusion chromatography was performed on a Waters Biosuite 4.6×300 mm column using a flow rate of 0.3 ml/min and a running buffer of 155 mM NaCl, 10 mM Calciumacetat, 10% Isopropanol at 25° C. The absorbance of the effluent was monitored by a UV detector at 280 nm. SEC-UV characterization were performed of FVIII, TIL′/E′/D3/A1 III, TIL′/E′/D3 II, and 1:2 complexes of FVIII—TIL′/E′/D3/A1 III and of FVIII—TIL′/E′/D3 II. Samples of FVIII 10 μM, TIL′/E′/D3/A1 III 20 μM, TIL′/E′/D3 II 20 μM, and in complex were prepared and 15 μL were loaded on to the column.

B1: VWF(764-865)-ALA-HPC4 monomer (other)
chain: SLSCRPPMVKLVCPADNLRAEGLECTKTCQNYDLECMSMGCVSGCLCPPGMVRHENRCVALERCPCFHQGKEYAPGETVKIGCNTCVCQDRKWNCTDHVCDAALAEDQVDPRLIDGK
notes: also called TIL′E′
Ka [1]: 3.02e+06 M⁻¹
Kd [2]: 330 nM
IC50 [3]: 2000 nM
stoichiometry [4]: 1.14
ΔH [4]: -5.82 kcal/mol
ΔS [4]: 9.8 cal/mol/deg

B2: VWF(764-1045)-ALA-HPC4 monomer (other)
chain: SLSCRPPMVKLVCPADNLRAEGLECTKTCQNYDLECMSMGCVSGCLCPPGMVRHENRCVALERCPCFHQGKEYAPGETVKIGCNTCVCQDRKWNCTDHVCDATCSTIGMAHYLTFDGLKYLFPGECQYVLVQDYCGSNPGTFRILVGNKGCSHPSVKCKKRVTILVEGGEIELFDGEVNVKRPMKDETHFEVVESGRYIILLLGKALSVVWDRHLSISVVLKQTYQEKVCGLCGNFDGIQNNDLTSSNLQVEEDPVDFGNSWKVSSQCADTRKVPLDSSPATALAEDQVDPRLIDGK
notes: also called TIL′/E′/VWD3 III
IC50 [3]: 2000 nM

B4: VWF(764-1041)-ALA-HPC4 monomer (other)
chain: SLSCRPPMVKLVCPADNLRAEGLECTKTCQNYDLECMSMGCVSGCLCPPGMVRHENRCVALERCPCFHQGKEYAPGETVKIGCNTCVCQDRKWNCTDHVCDATCSTIGMAHYLTFDGLKYLFPGECQYVLVQDYCGSNPGTFRILVGNKGCSHPSVKCKKRVTILVEGGEIELFDGEVNVKRPMKDETHFEVVESGRYIILLLGKALSVVWDRHLSISVVLKQTYQEKVCGLCGNFDGIQNNDLTSSNLQVEEDPVDFGNSWKVSSQCADTRKVPLDSALAEDQVDPRLIDGK
notes: also called 2306; TIL′/E′/VWD3 II
IC50 (nM), FVIII uptake in dendritic cells [5]: 570 nM
IC50 [3]: 2200 nM

Continued, values first:

IC50 [3]: 28 nM
B3: VWF(764-1198)-C1099/1142S-ALA-HPC4 monomer (other)
chain: SLSCRPPMVKLVCPADNLRAEGLECTKTCQNYDLECMSMGCVSGCLCPPGMVRHENRCVALERCPCFHQGKEYAPGETVKIGCNTCVCQDRKWNCTDHVCDATCSTIGMAHYLTFDGLKYLFPGECQYVLVQDYCGSNPGTFRILVGNKGCSHPSVKCKKRVTILVEGGEIELFDGEVNVKRPMKDETHFEVVESGRYIILLLGKALSVVWDRHLSISVVLKQTYQEKVCGLCGNFDGIQNNDLTSSNLQVEEDPVDFGNSWKVSSQCADTRKVPLDSSPATCHNNIMKQTMVDSSCRILTSDVFQDCNKLVDPEPYLDVCIYDTCSCESIGDCASFCDTIAAYAHVCAQHGKVVTWRTATLCPQSCEERNLRENGYESEWRYNSCAPACQVTCQHPEPLACPVQCVEGCHAHCPPGKILDELLQTCVDPEDCPVALAEDQVDPRLIDGK
notes: also called 0003; TIL′/E′/VWD3/C8-3/TIL-3

IC50 [3]: 20000 nM
B5: VWF(864-1250)-C1099/1142S-ALA-HPC4 monomer (other)
chain: DATCSTIGMAHYLTFDGLKYLFPGECQYVLVQDYCGSNPGTFRILVGNKGCSHPSVKCKKRVTILVEGGEIELFDGEVNVKRPMKDETHFEVVESGRYIILLLGKALSVVWDRHLSISVVLKQTYQEKVCGLCGNFDGIQNNDLTSSNLQVEEDPVDFGNSWKVSSQCADTRKVPLDSSPATCHNNIMKQTMVDSSCRILTSDVFQDCNKLVDPEPYLDVCIYDTCSCESIGDCASFCDTIAAYAHVCAQHGKVVTWRTATLCPQSCEERNLRENGYESEWRYNSCAPACQVTCQHPEPLACPVQCVEGCHAHCPPGKILDELLQTCVDPEDCPVCEVAGRRFASGKKVTLNPSDPEHCQICHCDVVNLTCEACQEPGGLVVPPTDAALAEDQVDPRLIDGK
notes: also called 0001; D3 I

binding result [6]: binds
B6: VWF(764-1261)-C1099/1142S-ALA-HPC4 monomer (other)
chain: SLSCRPPMVKLVCPADNLRAEGLECTKTCQNYDLECMSMGCVSGCLCPPGMVRHENRCVALERCPCFHQGKEYAPGETVKIGCNTCVCQDRKWNCTDHVCDATCSTIGMAHYLTFDGLKYLFPGECQYVLVQDYCGSNPGTFRILVGNKGCSHPSVKCKKRVTILVEGGEIELFDGEVNVKRPMKDETHFEVVESGRYIILLLGKALSVVWDRHLSISVVLKQTYQEKVCGLCGNFDGIQNNDLTSSNLQVEEDPVDFGNSWKVSSQCADTRKVPLDSSPATCHNNIMKQTMVDSSCRILTSDVFQDCNKLVDPEPYLDVCIYDTCSCESIGDCASFCDTIAAYAHVCAQHGKVVTWRTATLCPQSCEERNLRENGYESEWRYNSCAPACQVTCQHPEPLACPVQCVEGCHAHCPPGKILDELLQTCVDPEDCPVCEVAGRRFASGKKVTLNPSDPEHCQICHCDVVNLTCEACQEPGGLVVPPTDAPVSPTTLYVEDALAEDQVDPRLIDGK
notes: also called 2309; TIL′/E′/D3 II

IC50 (nM), FVIII uptake in dendritic cells [5]: 31 nM
IC50 [3]: 12 nM
B7: VWF(764-1250)-C1099/1142S-ALA-HPC4 monomer (other)
chain: SLSCRPPMVKLVCPADNLRAEGLECTKTCQNYDLECMSMGCVSGCLCPPGMVRHENRCVALERCPCFHQGKEYAPGETVKIGCNTCVCQDRKWNCTDHVCDATCSTIGMAHYLTFDGLKYLFPGECQYVLVQDYCGSNPGTFRILVGNKGCSHPSVKCKKRVTILVEGGEIELFDGEVNVKRPMKDETHFEVVESGRYIILLLGKALSVVWDRHLSISVVLKQTYQEKVCGLCGNFDGIQNNDLTSSNLQVEEDPVDFGNSWKVSSQCADTRKVPLDSSPATCHNNIMKQTMVDSSCRILTSDVFQDCNKLVDPEPYLDVCIYDTCSCESIGDCASFCDTIAAYAHVCAQHGKVVTWRTATLCPQSCEERNLRENGYESEWRYNSCAPACQVTCQHPEPLACPVQCVEGCHAHCPPGKILDELLQTCVDPEDCPVCEVAGRRFASGKKVTLNPSDPEHCQICHCDVVNLTCEACQEPGGLVVPPTDAALAEDQVDPRLIDGK
notes: also called TIL′/E′/D3 I
